Test results reported in the supplement of paper PMC9732359.
± gives the uncertainty stated by the source.

Assay: protein stability index of a GFP-peptide fusion (yeast GPS) (PSI 1-4); higher = more stable; sorted into four equal gates, so the index is relative within each strain
Settings: san1∆
Procedure, shortened: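 Plasmids isolated from each sorting gate were PCR-amplified and Illumina-sequenced, and barcodes assigned the reads to strains. The gates, four of equal size, were set by GFP/Cherry fluorescence ratio on mid-log cultures in leucine-free medium. These cultures were yeast carrying a pooled library of tiled 17-residue yeast protein peptides fused downstream of GFP on a plasmid that also expresses Cherry. The protein stability index is the sum of every gate's read frequency times its gate number.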

Point of comparison: VETKLETKVDELRYQSH [DSN1], protein stability index 3.31 ± 0.058. Against it:
- VFLFDIEKVDRENMICK [RRI2] — lower, 2.88 ± 0.19

Same assay, conditions: ubr1∆

Point of comparison: VEGHLFEIIDEASKKSA [FAS1], protein stability index 3.33 ± 0.073. Against it:
- TPPAIEHKPVSPDKIGT [SSN2] — lower, 3.17 ± 0.06
- TPPDDLHPYVPSSKPQE [SRB8] — lower, 3.07 ± 0.049
- TPYNADFDGDEMNLHVP [RPO31] — within error, 3.21 ± 0.062
- TQARVITGNKIMRILKS [RPS13] — lower, 1.1 ± 0.079
- TQIVAKFPETSYPILNE [SIN4] — lower, 2.89 ± 0.057
- TQLSYLISSSLSNLSKD [YCS4] — lower, 2.13 ± 0.045
- TQSYNNQNTLKEISARR [POP1] — lower, 2.78 ± 0.037
- TRDDLLTILMRSIMKNR [RRI2] — lower, 2.75 ± 0.067
- TRLTAYQELAYRATSLD [YML031W/NDC1] — lower, 3.04 ± 0.11
- TRMQRGHRADVGGQFSK [REC8] — within error, 3.39 ± 0.12
- TRNSLGNVIQFIYGEDG [RPO21] — within error, 3.28 ± 0.037
- TRNSNNLAIVELVRLLI [BRR2] — lower, 2.4 ± 0.049
- TRPYILERARDVNIVNR [YCG1] — lower, 3.08 ± 0.11
- TRSHFNALYDTLLESNL [RPN6] — lower, 2.69 ± 0.042
- TSAHLKLKEMQKVLNAH [SMC4] — lower, 1.97 ± 0.085
- TSAKEPSENDVFYRMQQ [RPO31] — lower, 2.7 ± 0.099
- TSDLVKSLGLKLPLSVI [RPS17A] — lower, 1.95 ± 0.091
- TSEMKVLSIPPANHLQS [YGL100W/SEH1] — lower, 2.56 ± 0.05
- TSFEQGEITFDGIGGLT [RPT4] — higher, 3.49 ± 0.059
- TSGTNIAGTFNVGKPDQ [YOR098C/NUP1] — within error, 3.21 ± 0.1
- TSIANAFRRIMISEVPS [RPC40] — lower, 1.88 ± 0.042
- TSKQHKRSGHRTAPKSD [RPL18A] — within error, 3.06 ± 0.2
- TSLFGSSSAQQTKSNGT [YJL041W/NSP1] — within error, 3.19 ± 0.073
- TSLFHKFILSGFIFTSM [RRI2] — lower, 1.52 ± 0.044
- TSNASMNTTLGSIGSRK [YAR002W/NUP60] — within error, 3.26 ± 0.085
- TSPGFGVSSPGFSPTSP [RPO21] — lower, 2.93 ± 0.043
- TSPSYSPTSPSYSPTSP [RPO21] — lower, 2.81 ± 0.03
- TSQHSDSLTQNNNNAPI [YOR098C/NUP1] — lower, 2.88 ± 0.031
- TTARNDLGVVFARAANG [CSL4] — lower, 2.39 ± 0.048
- TTESNSRLKALNLQFKA [YLR335W/NUP2] — lower, 2.98 ± 0.073
- TTFEYIIKERALLSKVK [SNF2] — lower, 1.37 ± 0.036
- TTFRNEYGKHDFKNEES [MED8] — within error, 3.28 ± 0.096
- TTFTHCEIHPSMILGVA [RPB2] — lower, 2.57 ± 0.098
- TTFTKVAAKWNTSLISL [PRP8] — lower, 2.06 ± 0.036
- TTGISSTGAADGGYNAQ [SMC2] — within error, 3.17 ± 0.11
- TTIQTEKVRPTPGEVAS [MCD1] — lower, 2.84 ± 0.034
- TTKERKKSRLGNSFHLM [PRP8] — lower, 2.48 ± 0.054
- TTLDAEKVFTQGLNILE [FAS1] — within error, 3.28 ± 0.064
- TTQRRYEKAQKDLENAQ [SMC1] — lower, 3.14 ± 0.1
- TTVPFKESDDPSIPLVI [POP1] — lower, 2.89 ± 0.077
- TVKFKHMDYDGNIVKEF [YMR129W/POM152] — lower, 2.99 ± 0.05
- TVMFFYHNKHMMCDFGT [DIB1] — lower, 2.54 ± 0.032
- TVRKSIACVLTVINEQQ [RPL35A] — lower, 2.11 ± 0.063
- TWIHSEIEELKSSIQNL [SMC3] — lower, 3.08 ± 0.11
- TYDMVGGLTKQIKEIKE [RPT6] — lower, 2.56 ± 0.08
- TYEAIDVPGRELKYELI [RPB2] — higher, 3.81 ± 0.16
- TYGFLTPNLWAEQPLPV [RPS2] — lower, 1.54 ± 0.059
- TYRYVSVSVLVDRLKIG [RPS25A] — lower, 1.45 ± 0.039
- TYSTPKRPYESSRLDAE [RPS9A] — lower, 2.87 ± 0.064
- VAAASKILSNLVYQYKG [PRE2] — lower, 2.49 ± 0.051
- VAALVSLTEKFSQTVAD [ECM29] — lower, 1.67 ± 0.085
- VAGAIRAGIIIAKLSVI [RPS2] — lower, 2.65 ± 0.083
- VAKLANWFLEVYASGNP [YML031W/NDC1] — lower, 1.12 ± 0.055
- VAPFMIKYEFNGIPLKS [YMR129W/POM152] — lower, 2.75 ± 0.073
- VCMHCGKLLLDEHNELM [RPO21] — lower, 3.14 ± 0.084
- VDENDEVLLAGFGRKGK [RPS23A] — lower, 1.24 ± 0.068
- VDFACCTNLTNRTLYEL [GRR1] — lower, 2.73 ± 0.044
- VDGMAKVPIGLILQRLK [RGR1] — lower, 2.49 ± 0.057
- VDIGGKQHAVLMLGSVN [RRP4] — lower, 2.6 ± 0.037
- VDLLQFPWLNAIKYRPT [POP3] — lower, 1.84 ± 0.11
- VDNENNKPAIKEDSTIQ [SWI3] — lower, 3.12 ± 0.062
- VDPRIINSENDYSRKQL [NUT1] — lower, 3.06 ± 0.056
- VDSLDPFSEGVTFSVMP [SMC4] — lower, 3.1 ± 0.072
- VDTGLQPQHPHYVSTSK [YLR018C/POM34] — lower, 2.9 ± 0.042
- VDTLHNKEGTLEQREQN [SSN2] — within error, 3.35 ± 0.081
- VEDDLVTVQTELNEEKK [SMC2] — lower, 2.85 ± 0.087
- VEDELTESIALSSMRFK [RRI1] — within error, 3.28 ± 0.051
- VEECPQYIRTLVSEART [SSN8] — lower, 1.87 ± 0.061
- VELTYSLNNSDSLISGV [BRR2] — lower, 3.12 ± 0.051
- VENGTTSIGIKCNDGVV [PRE10] — within error, 3.31 ± 0.22
- VEQGYEDAFNFWFDKLV [YCG1] — lower, 2.38 ± 0.2
- VETKLETKVDELRYQSH [DSN1] — lower, 3.08 ± 0.073
- VFLFDIEKVDRENMICK [RRI2] — within error, 3.29 ± 0.12
